In this data set the test system is BL21-DE3 E. coli cells. Description: slncRNA and tdPCP-mCherry expression in bacteria (puncta, burst analysis, flow cytometry). The data set is classed as cell-based. Particulars: slncRNA co-expressed with tdPCP-mCherry, overnight induction. (In general: A flow cytometer gives signals particle by particle.)

The values that follow come from patent US20240218024A1, “METHODS AND COMPOSITIONS FOR TREATMENT OF VIRAL INFECTION” (TECHNION RESEARCH & DEVELOPMENT FOUNDATION LIMITED, priority 2021, published 2024).

B1: PCP-4×/QCP-5×: class II slncRNA, four native PCP binding sites and five native QB coat protein hairpins (SEQ ID NO: 29) (nucleic acid)
chain: GAGAAACCTAGGCGATTATGACGTTATTCTACTTTGATTGTGATGCATGTCTAAGACAGCATCGCCTGCTGGTCGTGACTAAGGAGTTTATATGGAAACCCTTACGAGACAATGCTACCTTACCGGTCGGGCCCACTTGTTTTTACCCATGATGCATGTCTAAGACAGCATCGCCTGCTGGTCGTGACTAAGGAGTTTATATGGAAACCCTTAGAAACAGCCGTCGCCTTGAAGCCGAGAACAATGCATGTCTAAGACAGCATATGGATTGCCTGTCTGTTAAGGAGTTTATATGGAAACCCTTACATCAGGCTTCGCAGTATGCAACGCTTGCGATGCATGTCTAAGACAGCATTTCACCGCTTTCCTAAGTAAGGAGTTTATATGGAAACCCTTAGTACTAACTCGCAGATGCATGTCTAAGACAGCATCAGAAACGTCACGTCCTGGCTGTCGA
As to B1, the “puncta formation in cells” value is given as “formation of bright puncta at the cell poles”.
